Source: US11208498B2, “Treatment and prevention of cancer using HER3 antigen-binding molecules” (Hummingbird Bioscience Holdings Pte. Ltd., priority 2019, dated 2021)
One block for each molecule: values may come before it.

Legend:
[1] = biological target: human HER3 (Homo sapiens, UniProt P21860); test: Global affinity study by Bio-Layer Interferometry (Octet QK384); assay type: binding; settings: HER3 unbound, 'closed' conformation
Experimental: The anti-HER3 antibody clones in IgG1 format were analysed for binding affinity to human HER3.
Bio-Layer Interferometry (BLI) experiments were performed using the Octet QK384 system (ForteBio). anti-Human IgG Capture (AHC) Octet sensor tips (Pall ForteBio, USA) were used to anti-HER3 antibodies (25 nM). All measurements were performed at 25° C. with agitation at 1000 rpm. […] Sensograms were referenced for buffer effects and then fitted using the Octet QK384 user software (Pall ForteBio, USA).
(§1) Binding of anti-HER3 antibodies to human HER3 was evaluated by BLI. Briefly, anti-Human IgG Capture (AHC) sensors (ForteBio) were loaded with anti-HER3 IgG antibodies (25 nM). Kinetic measurements were performed in absence or presence of NRG1. NRG1 was used at 1:1 molar ratio with HER3 wherein the complex was allowed to form at RT for 2 h. His-tagged human HER3 or HER3-NRG1 complexes were loaded to antibody coated AHC sensors at different concentrations for 120 s, followed by a 120 s dissociation time. All measurements were performed at 25° C. with agitation at 1000 rpm. Sensorgrams were referenced for buffer effects and then analyzed using the Octet QK384-software (ForteBio). Kinetic responses were globally fitted using a one-site binding model to obtain values for association (Kon), dissociation (Koff) rate constants and the equilibrium dissociation constant (KD).

[2] = biological target: human HER3: human NRG1 complex (Homo sapiens, UniProt P21860); test: BLI binding to HER3 in ligand-bound 'open' conformation; settings: NRG1 at 1:1 molar ratio with HER3
Experimental: In further experiments, anti-HER3 antibodies were analysed in order to determine the affinity of binding to human HER3 in the context of a human HER3: human NRG1 complex (that is, HER3 provided in the ligand-bound, ‘open’ conformation), as compared to the affinity of binding to human HER3 in the absence of NRG1 complex (that is, HER3 provided in the unbound, ‘closed’ conformation).
as §1

[3] = tested on: HER3 extracellular domain; test: Epitope mapping with overlapping 15-mer peptides; assay type: binding, human
Experimental: The epitope for 10D1 was mapped using overlapping 15-mer amino acids to cover the entire HER3 extracellular domain. Each unique 15-mer was elongated by a GS linker at C and N-terminals, conjugated to a unique well in 384 well plates, and the plates were incubated with 0.1, 1, 10 and 100 ug/ml of 10D1 antibody for 16 hrs at 4° C. The plates were washed and then incubated for 1 hr at 20° C. with POD-conjugated goat anti-human IgG. Finally POD substrate solution was added to the wells for 20 min. before binding was assessed by measurement of chemiluminescence at 425 nm using a LI-COR Odyssey Imaging System, and quantification and analysis was performed using the PepSlide Analyzer software package. The experiment was performed in duplicate.

[4] = tested on: intracellular signalling pathways in FaDu cells; test: Phosphoprotein Antibody Array, FaDu cells; assay type: cell-based; settings: 50 μg/ml antibody 4 hrs, NRG 100 ng/ml 15 min
Experimental: In further experiments the inventors investigated the intracellular signalling pathways affected by anti-HER3 antibody-mediated inhibition of HER3.
FaDu cells were seeded in wells of a 6 well plate with 10% serum at 37° C., 5% CO2. After 16 hrs, cells were starved by culture overnight in 1% FBS cell culture medium. On the following day cells were treated with 50 μg/ml anti-HER3 antibody 10D1 for 4 hrs, followed by 15 min stimulation with NRG (100 ng/ml). Proteins were then extracted, quantified using standard Bradford protein assay, and incubated overnight with pre-blocked Phosphoprotein Antibody Array membrane (Ray Biotech) at 4° C. The membrane was then washed with washing buffer and incubated with detection antibody cocktail for 2 hrs at room temperature, followed by washing and incubation with HRP-Conjugated anti-IgG. After 2 hrs the membrane was washed and probed using the kit detection buffer. Images were captured with Syngene Gbox imaging system, the intensity of each dot/phosphoprotein was measured and percent inhibition was calculated by comparison with intensity measured for cells treated in the same way in the absence of the antibody.

[5] = biological target: His-tagged human HER3 (Homo sapiens, UniProt P21860); test: BLI competition between anti-HER3 antibodies for binding to HER3
Experimental: Bio-Layer Interferometry (BLI) experiments were performed using the Octet QK384 system (ForteBio). anti-Penta-HIS (HIS1K) coated biosensor tips (ForteBio, USA) were used to capture His-tagged human HER3 (75 nM; 300 s). […] The variable region of LJM-716 antibody was cloned in the PDZ vector having human IgG1 and IgKappa Fc backbone.
BLI experiments were performed as described in Example 3.5 with one alteration: 400 nM of competing antibodies were used. The variable regions of M-05-74 and M-08-11 antibodies were cloned in the PDZ vector having human IgG1 and IgKappa Fc backbone.

[6] = biological target: T1, human EGFR (Homo sapiens, UniProt P00533); test: ELISA for antibody specificity: human EGFR (HER1); assay type: binding
T1 construct: purchased Sino Biological Inc., China
Experimental: ELISAs were used to determine the binding specificity of the antibodies. The antibodies were analysed for binding to human HER3 polypeptide, as well as respective mouse, rat and monkey homologues of HER3 (Sino Biological Inc., China). The antibodies were also analysed for their ability to bind to human EGFR and human HER2 (Sino Biological Inc., China).
ELISAs were carried out according to standard protocols. Briefly, 96-well plates (Nunc, Denmark) were coated with 0.1 μg/ml of target polypeptide in phosphate-buffered saline (PBS) for 16 h at 4° C. After blocking for 1 h with 1% BSA in Tris buffer saline (TBS) at room temperature, the anti-HER3 antibody was serially diluted with the highest concentration being 10 μg/ml, and added to the plate. Post 1 h incubation at room temperature, plates were washed three times with TBS containing 0.05% Tween 20 (TBS-T) and were then incubated with a HRP-conjugated anti-His antibody (Life Technologies, Inc., USA) for 1 h at room temperature. […] The reaction was stopped with 2M H2SO4, and OD was measured at 450 nm.
The antibodies were analysed for their ability to bind to human HER3 polypeptide as well as human HER1 (EGFR) and human HER2 (Sino Biological Inc., China). […]
ELISAs were carried out according to standard protocols. […] The reaction was stopped with 2M […], and OD was measured at 450 nm.

B1: 10D1F: clone with VH SEQ ID NO:36 and VL SEQ ID NO:83; b369 means 10D1F.A, b1087 the mIgG2a format (antibody, V domains shown)
VH: QVQLQESGPGLVKPSQTLSLTCTVSGYSITSGYSWHWIRQHPGKGLEWIGSIRYSGGTDYNPSLKSLVTISADTSKNQFSLKLSSVTAADTAVYYCARMTTAPWYPFDYWGQGTTVTVSS
VL: DIQMTQSPSSVSASVGDRVTITCKASQIVGSNVAWYQQKPGKAPEPLIYSASYLYSGVPSRFSGSGSGTDFTLTISSLQPEDFATYYCQQYSSHPLTFGQGTKLEIK
modifications: 10D1_c89 heavy chain variable region; 10D1_c89 light chain variable region
notes: b369 means 10D1F.A, b1087 the mIgG2a format
affinity of binding to human HER3 in the absence of NRG1 [1]: sub-picomolar affinity | affinity of binding to human HER3 in the presence of NRG1 [2]: sub-picomolar affinity

B2: 10D1: parental mouse anti-HER3 antibody clone, VH SEQ ID NO:24, VL SEQ ID NO:74, human IgG1 chimeric (antibody, V domains shown)
VH: DVQLQESGPDLVKPSQSLSLTCTVTGYSITSGYSWHWIRQFPGNKLEWMGSIHYSGGTNYNPSLKSRISITRDTSKNQFFLQLNSVTTEDTATYFCARMTTAPRYPFDYWGQGTTLTVSS
VL: DIVMTQSQKFMSTSVGDRVSVTCKASQIVGSNVAWYQQKPGQSPKPLIYSASYRYSGVPDRFTASGSGTDFTLTITNVQSEDLAEYFCQQYSSHPLTFGAGTKLELK
modifications: human IgG1 constant regions; 10D1 heavy chain variable region; 10D1 light chain variable region
location of epitope relative to β-hairpin of HER3 dimerisation arm [3]: at a dimerisation interface N-terminal to the β-hairpin | site of HER3 bound ([3]; positions of human HER3 SEQ ID NO:1, region SEQ ID NO:229): positions 218 to 235 | PI3K/AKT/mTOR and MAPK signalling [4]: inhibit PI3K/AKT/mTOR and MAPK signalling | epitope of HER3 relative to MM-121 and/or LJM-716 [5]: distinct and topologically distant epitope

Next, values leading:

affinity of binding to human HER3 in the absence of NRG1 [1]: subpicomolar affinity | affinity of binding to human HER3 in the presence of NRG1 [2]: dramatically reduced
Molecule: LJM716: anti-HER3 antibody clone described in Garner et al., Cancer Res (2013); epitope across domains II and IV [reference compound]

binding to human EGFR [6]: found to bind
B3: 4-35-B2: anti-HER3 antibody clone, VH SEQ ID NO:127, VL SEQ ID NO:135 (antibody, V domains shown)
VH: EIQLQQSGPELVKPGASVKVSCKASGYSFTDYNMYWVKQSHGKSLEWIGHINPYNGGTTYNQKFKGRATLTVDKSSSTAFMHLNSLTSEDSAVYFCVSLRWGAMDYWGQGTSVTVSS
VL: QIVLTQSPALMSASPGEKVTMTCSASSSVSYMYWYQQKPRSSPKPWIYLTSNLASGVPARFSGSGSGTSYSLTISSMEAEDAATYYCQQWNSNPYTFGGGTKLEIK
modifications: 4-35-B2 heavy chain variable region; 4-35-B2 light chain variable region
